Test results: article PMC11574045, “A cofactor-induced repressive type of transcription factor condensation can be induced by synthetic peptides to suppress tumorigenesis” (The EMBO Journal, 2024)

tested on: HEK293FT cells transfected with TF library; assay: Screening of TF condensates based on fluorescent puncta; format: cell-based; conditions: Figure 1B numerical data; TF library screen, one value per transcriptional factor
Method: TF plasmids were automatically added to black-walled 384-well plates at 80 ng per well to reach a final concentration of 1.6 μg/ml. Polyethylenimine (PEI, Sigma) was then added to the plasmid-loaded plates at 240 ng per well (4.8 μg/ml). Subsequently, HEK293FT cells were seeded into the plate at 2000 cells per well. After 60 h, cells were cultured in medium with or without glucose for 12 h, and then fixed with 4% paraformaldehyde (PFA) at room temperature for 30 min. After three washes with PBS, fixed cells were permeabilized with 0.05% Triton X-100 for 15 min. Thereafter, cells were blocked with 5% BSA for 1 h, and then incubated overnight with anti-Flag (Sigma F3165, 1:200) and anti-GAL4 (Abbkine ABP57232, 1:200) primary antibodies at 4 °C. The cells were then gently washed with PBS, followed by being incubated with Alexa Fluor Plus 488 goat anti-mouse IgG secondary antibody (Thermo A32723, 1:400) or Alexa Fluor Plus 488 goat anti-rabbit IgG secondary antibody (Thermo A32731, 1:400) for 1 h. The plates were kept at 4 °C in the dark before being analyzed using an Opera System (Perkin Elmer). Fifty random fields per well were scanned and analyzed using the Columbus Plus Image Data Storage and Analysis System (Perkin Elmer).

Molecule | Z score of condensed fraction
EN2 (protein, UniProt P19622 1-333, looked up) Homeobox protein engrailed-2: MEENDPKPGEAAAAVEGQRQPESSPGGGSGGGGGSSPGEADTGRRRALMLPAVLQAPGNHQHPHRITNFFIDNILRPEFGRRKDAGTCCAGAGGGRGGGAGGEGGASGAEGGGGAGGSEQLLGSGSREPRQNPPCAPGAGGPLPAAGSDSPGDGEGGSKTLSLHGGAKKGGDPGGPLDGSLKARGLGGGDLSVSSDSDSSQAGANLGAQPMLWPAWVYCTRYSDRPSSGPRSRKPKKKNPNKEDKRPRTAFTAEQLQRLKAEFQTNRYLTEQRRQSLAQELSLNESQIKIWFQNKRAKIKKATGNKNTLAVHLMAQGLYNHSTTAKEGKSDSE | 2.005
AES (protein, UniProt Q08117 1-197, looked up) TLE family member 5: MMFPQSRHSGSSHLPQQLKFTTSDSCDRIKDEFQLLQAQYHSLKLECDKLASEKSEMQRHYVMYYEMSYGLNIEMHKQAEIVKRLNGICAQVLPYLSQEHQQQVLGAIERAKQVTAPELNSIIRQQLQAHQLSQLQALALPLTPLPVGLQPPSLPAVSAGTGLLSLSALGSQAHLSKEDKNGHDGDTHQEDDGEKSD | -0.7544
ERCC3 (protein, UniProt P19447 1-782, looked up) General transcription and DNA …: MGKRDRADRDKKKSRKRHYEDEEDDEEDAPGNDPQEAVPSAAGKQVDESGTKVDEYGAKDYRLQMPLKDDHTSRPLWVAPDGHIFLEAFSPVYKYAQDFLVAIAEPVCRPTHVHEYKLTAYSLYAAVSVGLQTSDITEYLRKLSKTGVPDGIMQFIKLCTVSYGKVKLVLKHNRYFVESCHPDVIQHLLQDPVIRECRLRNSEGEATELITETFTSKSAISKTAESSGGPSTSRVTDPQGKSDIPMDLFDFYEQMDKDEEEEEETQTVSFEVKQEMIEELQKRCIHLEYPLLAEYDFRNDSVNPDINIDLKPTAVLRPYQEKSLRKMFGNGRARSGVIVLPCGAGKSLVGVTAACTVRKRCLVLGNSAVSVEQWKAQFKMWSTIDDSQICRFTSDAKDKPIGCSVAISTYSMLGHTTKRSWEAERVMEWLKTQEWGLMILDEVHTIPAKMFRRVLTIVQAHCKLGLTATLVREDDKIVDLNFLIGPKLYEANWMELQNNGYIAKVQCAEVWCPMSPEFYREYVAIKTKKRILLYTMNPNKFRACQFLIKFHERRNDKIIVFADNVFALKEYAIRLNKPYIYGPTSQGERMQILQNFKHNPKINTIFISKVGDTSFDLPEANVLIQISSHGGSRRQEAQRLGRVLRAKKGMVAEEYNAFFYSLVSQDTQEMAYSTKRQRFLVDQGYSFKVITKLAGMEEEDLAFSTKEEQQQLLQKVLAATDLDAEEEVVAGEFGSRSSQASRRFGTMSSMSGADDTVYMEYHSSRSKAPSKHVHPLFKRFRK | -0.7686
AEBP2 (protein, UniProt Q6ZN18 2-517, looked up) Zinc finger protein AEBP2: AAAITDMADLEELSRLSPLPPGSPGSAARGRAEPPEEEEEEEEEEEEAEAEAVAALLLNGGSGGGGGGGGGGVGGGEAETMSEPSPESASQAGEDEDEEEDDEEEEDESSSSGGGEEESSAESLVGSSGGSSSDETRSLSPGAASSSSGDGDGKEGLEEPKGPRGSQGGGGGGSSSSSVVSSGGDEGYGTGGGGSSATSGGRRGSLEMSSDGEPLSRMDSEDSISSTIMDVDSTISSGRSTPAMMNGQGSTTSSSKNIAYNCCWDQCQACFNSSPDLADHIRSIHVDGQRGGVFVCLWKGCKVYNTPSTSQSWLQRHMLTHSGDKPFKCVVGGCNASFASQGGLARHVPTHFSQQNSSKVSSQPKAKEESPSKAGMNKRRKLKNKRRRSLPRPHDFFDAQTLDAIRHRAICFNLSAHIESLGKGHSVVFHSTVIAKRKEDSGKIKLLLHWMPEDILPDVWVNESERHQLKTKVVHLSKLPKDTALLLDPNIYRTMPQKRLKRTLIRKVFNLYLSKQ | 0.1647
ENY2 (protein, UniProt Q9NPA8 1-101, looked up) Transcription and mRNA export …: MVVSKMNKDAQMRAAINQKLIETGERERLKELLRAKLIECGWKDQLKAHCKEVIKEKGLEHVTVDDLVAEITPKGRALVPDSVKKELLQRIRTFLAQHASL | -0.6608
ERF (protein, UniProt P50548 1-548, looked up) ETS domain-containing …: MKTPADTGFAFPDWAYKPESSPGSRQIQLWHFILELLRKEEYQGVIAWQGDYGEFVIKDPDEVARLWGVRKCKPQMNYDKLSRALRYYYNKRILHKTKGKRFTYKFNFNKLVLVNYPFIDVGLAGGAVPQSAPPVPSGGSHFRFPPSTPSEVLSPTEDPRSPPACSSSSSSLFSAVVARRLGRGSVSDCSDGTSELEEPLGEDPRARPPGPPDLGAFRGPPLARLPHDPGVFRVYPRPRGGPEPLSPFPVSPLAGPGSLLPPQLSPALPMTPTHLAYTPSPTLSPMYPSGGGGPSGSGGGSHFSFSPEDMKRYLQAHTQSVYNYHLSPRAFLHYPGLVVPQPQRPDKCPLPPMAPETPPVPSSASSSSSSSSSPFKFKLQPPPLGRRQRAAGEKAVAGADKSGGSAGGLAEGAGALAPPPPPPQIKVEPISEGESEEVEVTDISDEDEEDGEVFKTPRAPPAPPKPEPGEAPGASQCMPLKLRFKRRWSEDCRLEGGGGPAGGFEDEGEDKKVRGEGPGEAGGPLTPRRVSSDLQHATAQLSLEHRDS | -0.2253
EID1 (protein, UniProt Q9Y6B2 1-187, looked up) EP300-interacting inhibitor …: MSEMAELSELYEESSDLQMDVMPGEGDLPQMEVGSGSRELSLRPSRSGAQQLEEEGPMEEEEAQPMAAPEGKRSLANGPNAGEQPGQVAGADFESEDEGEEFDDWEDDYDYPEEEQLSGAGYRVSAALEEADKMFLRTREPALDGGFQMHYEKTPFDQLAFIEELFSLMVVNRLTEELGCDEIIDRE | 1.007
EDF1 (protein, UniProt O60869 2-148, looked up) Endothelial …: AESDWDTVTVLRKKGPTAAQAKSKQAILAAQRRGEDVETSKKWAAGQNKQHSITKNTAKLDRETEELHHDRVTLEVGKVIQQGRQSKGLTQKDLATKINEKPQVIADYESGRAIPNNQVLGKIERAIGLKLRGKDIGKPIEKGPRAK | -0.3636
ELK1 (protein, UniProt P19419 1-428, looked up) ETS domain-containing protein …: MDPSVTLWQFLLQLLREQGNGHIISWTSRDGGEFKLVDAEEVARLWGLRKNKTNMNYDKLSRALRYYYDKNIIRKVSGQKFVYKFVSYPEVAGCSTEDCPPQPEVSVTSTMPNVAPAAIHAAPGDTVSGKPGTPKGAGMAGPGGLARSSRNEYMRSGLYSTFTIQSLQPQPPPHPRPAVVLPSAAPAGAAAPPSGSRSTSPSPLEACLEAEEAGLPLQVILTPPEAPNLKSEELNVEPGLGRALPPEVKVEGPKEELEVAGERGFVPETTKAEPEVPPQEGVPARLPAVVMDTAGQAGGHAASSPEISQPQKGRKPRDLELPLSPSLLGGPGPERTPGSGSGSGLQAPGPALTPSLLPTHTLTPVLLTPSSLPPSIHFWSTLSPIAPRSPAKLSFQFPSSGSAQVHIPSISVDGLSTPVVLSPGPQKP | -0.5027
ELF3 (protein, UniProt P78545 1-371, looked up) ETS-related transcription …: MAATCEISNIFSNYFSAMYSSEDSTLASVPPAATFGADDLVLTLSNPQMSLEGTEKASWLGEQPQFWSKTQVLDWISYQVEKNKYDASAIDFSRCDMDGATLCNCALEELRLVFGPLGDQLHAQLRDLTSSSSDELSWIIELLEKDGMAFQEALDPGPFDQGSPFAQELLDDGQQASPYHPGSCGAGAPSPGSSDVSTAGTGASRSSHSSDSGGSDVDLDPTDGKLFPSDGFRDCKKGDPKHGKRKRGRPRKLSKEYWDCLEGKKSKHAPRGTHLWEFIRDILIHPELNEGLMKWENRHEGVFKFLRSEAVAQLWGQKKKNSNMTYEKLSRAMRYYYKREILERVDGRRLVYKFGKNSSGWKEEEVLQSRN | -0.7241
ADNP (protein, UniProt Q9H2P0 1-1102, looked up) Activity-dependent …: MFQLPVNNLGSLRKARKTVKKILSDIGLEYCKEHIEDFKQFEPNDFYLKNTTWEDVGLWDPSLTKNQDYRTKPFCCSACPFSSKFFSAYKSHFRNVHSEDFENRILLNCPYCTFNADKKTLETHIKIFHAPNASAPSSSLSTFKDKNKNDGLKPKQADSVEQAVYYCKKCTYRDPLYEIVRKHIYREHFQHVAAPYIAKAGEKSLNGAVPLGSNAREESSIHCKRCLFMPKSYEALVQHVIEDHERIGYQVTAMIGHTNVVVPRSKPLMLIAPKPQDKKSMGLPPRIGSLASGNVRSLPSQQMVNRLSIPKPNLNSTGVNMMSSVHLQQNNYGVKSVGQGYSVGQSMRLGLGGNAPVSIPQQSQSVKQLLPSGNGRSYGLGSEQRSQAPARYSLQSANASSLSSGQLKSPSLSQSQASRVLGQSSSKPAAAATGPPPGNTSSTQKWKICTICNELFPENVYSVHFEKEHKAEKVPAVANYIMKIHNFTSKCLYCNRYLPTDTLLNHMLIHGLSCPYCRSTFNDVEKMAAHMRMVHIDEEMGPKTDSTLSFDLTLQQGSHTNIHLLVTTYNLRDAPAESVAYHAQNNPPVPPKPQPKVQEKADIPVKSSPQAAVPYKKDVGKTLCPLCFSILKGPISDALAHHLRERHQVIQTVHPVEKKLTYKCIHCLGVYTSNMTASTITLHLVHCRGVGKTQNGQDKTNAPSRLNQSPSLAPVKRTYEQMEFPLLKKRKLDDDSDSPSFFEEKPEEPVVLALDPKGHEDDSYEARKSFLTKYFNKQPYPTRREIEKLAASLWLWKSDIASHFSNKRKKCVRDCEKYKPGVLLGFNMKELNKVKHEMDFDAEWLFENHDEKDSRVNASKTADKKLNLGKEDDSSSDSFENLEEESNESGSPFDPVFEVEPKISNDNPEEHVLKVIPEDASESEEKLDQKEDGSKYETIHLTEEPTKLMHNASDSEVDQDDVVEWKDGASPSESGPGSQQVSDFEDNTCEMKPGTWSDESSQSEDARSSKPAAKKKATMQGDREQLKWKNSSYGKVEGFWSKDQSQWKNASENDERLSNPQIEWQNSTIDSEDGEQFDNMTDGVAEPMHGSLAGVKLSSQQA | -0.6304
EMX1 (protein, UniProt Q04741 1-290, looked up) Homeobox protein EMX1: MCLAGCTPRKAAAPGRGALPRARLPRTAPAAATMFQPAAKRGFTIESLVAKDGGTGGGTGGGGAGSHLLAAAASEEPLRPTALNYPHPSAAEAAFVSGFPAAAAAGAGRSLYGGPELVFPEAMNHPALTVHPAHQLGASPLQPPHSFFGAQHRDPLHFYPWVLRNRFFGHRFQASDVPQDGLLLHGPFARKPKRIRTAFSPSQLLRLERAFEKNHYVVGAERKQLAGSLSLSETQVKVWFQNRRTKYKRQKLEEEGPESEQKKKGSHHINRWRIATKQANGEDIDVTSND | -0.9497
